Here are results for 1 molecule from publication PMC11871066, “Structure-based discovery of hydrocarbon-stapled paxillin peptides that block FAK scaffolding in cancer” (Nature Communications, 2025).

What all share (assay): SPR
On the technique in general: In SPR one partner is held on a chip, and binding of the other changes the refractive index at the surface.

The target of experiment [1] is T1, Paxillin LD2 peptide (141-…-153).
T1 chain: NLSELDRLLLELN
Conditions: chain shown with the change, right panel, peptide concentration not given.

Experiment [2] deals with T2, Peptide 2013, unstapled version of 1907, P49023.
T2 chain: NL
Conditions: chain shown with the change; right panel; peptide concentration not given.

Experiment [3] has as its target T3, Stapled peptide 1907, P49023.
T3 chain: NL
Conditions: chain shown with the change; right panel; peptide concentration not given.

B1: Biotinylated AviTag FAK FAT protein, Q05397 I936E; L994E (protein)
chain: MAAAYLDPNLNHTPNSSTKTHLGTGMERSPGAMERVLKVFHYFESNSEPTTWASIIRHGDATDVRGIIQKIVDSHKVKHVACYGFRLSHLRSEEVHWLHVDMGVSSVREKYELAHPPEEWKYELRIRYLPKGFLNQFTEDKPTLNFFYQQVKSDYMLEIADQVDQEIALKLGCLEIRRSYWEMRGNALEKKSNYEVLEKDVGLKRFFPKSLLDSVKAKTLRKLIQQTFRQFANLNREESILKFFEILSPVYRFDKECFKCALGSSWIISVELAIGPEEGISYLTDKGCNPTHLADFTQVQTIQYSNSEDKDRKGMLQLKIAGAPEPLTVTAPSLTIAENMADLIDGYCRLVNGTSQSFIIRPQKEGERALPSIPKLANSEKQGMRTHAVSVSETDDYAEIIDEEDTYTMPSTRDYEIQRERIELGRCIGEGQFGDVHQGIYMSPENPALAVAIKTCKNCTSDSVREKFLQEALTMRQFDHPHIVKLIGVITENPVWIIMELCTLGELRSFLQVRKYSLDLASLILYAYQLSTALAYLESKRFVHRDIAARNVLVSSNDCVKLGDFGLSRYMEDSTYYKASKGKLPIKWMAPESINFRRFTSASDVWMFGVCMWEILMHGVKPFQGVKNNDVIGRIENGERLPMPPNCPPTLYSLMTKCWAYDPSRRPRFTELKAQLSTILEEEKAQQEERMRMESRRQATVSWDSGGSDEAPPKPSRPGYPSPRSSEGFYPSPQHMVQTNHYQVSGYPGSHGITAMAGSIYPGQASLLDQTDSWNHRPQEIAMWQPNVEDSTVLDLRGIGQVLPTHLMEERLIRQQQEMEEDQRWLEKEERFLKPDVRLSRGSIDREDGSLQGPIGNQHIYQPVGKPDPAAPPKKPPRPGAPGHLGSLASLSSPADSYNEGVKLQPQEISPPPTANLDRSNDKVYENVTGLVKAVEEMSSKIQPAPPEEYVPMVKEVGLALRTLLATVDETIPLLPASTHREIEMAQKLLNSDEGELINKMKLAQQYVMTSLQQEYKKQMLTAAHALAVDAKNLLDVIDQARLKMLGQTRPH
Consider B1, for which the ratio to parent came to 4 in experiment [1], 33 in experiment [2] and 238 in experiment [3]. Moreover, the response in experiment [1] (plateau of the sensorgram near the end of injection (about 75 s), parent: est. 58, read off a plot) was 14 RU.
